Measured values reported in patent US20260035476A1.

Target: CD68 protein (human) (UniProt P34810)
Experiment: flow cytometry on lupus patient PBMC, B cells (FIG. 3B)

UniProt P34810, sequence (P34810 22-354): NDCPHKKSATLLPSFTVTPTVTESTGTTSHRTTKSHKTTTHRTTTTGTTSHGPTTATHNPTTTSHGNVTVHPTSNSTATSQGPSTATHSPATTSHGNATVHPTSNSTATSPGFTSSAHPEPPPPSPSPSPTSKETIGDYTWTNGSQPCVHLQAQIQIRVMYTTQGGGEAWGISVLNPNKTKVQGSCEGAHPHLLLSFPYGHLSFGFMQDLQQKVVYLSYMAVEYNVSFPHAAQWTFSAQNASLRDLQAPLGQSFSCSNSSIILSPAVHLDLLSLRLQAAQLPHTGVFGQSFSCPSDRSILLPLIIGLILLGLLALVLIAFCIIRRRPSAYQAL

- percent of B cells co-stained for CD68 and ARID3a: 29%
Substance: Y1/82A anti-CD68 monoclonal antibody
